The values below come from patent US20230348614A1 (VISTERRA, published 2023).

Changes are numbered by the printed parent chain.

One experiment has as its target T1, V110A (Homo sapiens, UniProt P18827).
T1 construct: clone of the alanine scanning library on HEK-293T cells; m17 with one substitution; also called CD138 V110A
T1 sequence (CD138 (SDC1), full length, point mutant, looked up): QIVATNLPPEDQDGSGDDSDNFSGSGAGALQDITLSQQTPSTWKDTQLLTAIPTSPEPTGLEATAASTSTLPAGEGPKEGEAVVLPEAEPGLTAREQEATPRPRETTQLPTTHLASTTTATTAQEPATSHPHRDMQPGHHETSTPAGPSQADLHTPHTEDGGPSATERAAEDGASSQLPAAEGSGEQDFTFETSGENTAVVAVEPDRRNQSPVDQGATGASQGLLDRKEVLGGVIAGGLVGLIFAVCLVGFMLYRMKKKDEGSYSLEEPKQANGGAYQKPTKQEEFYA
In words: alanine scan: flow cytometry on HEK-293T cells expressing the mutant clone, 4320 Fab 0.50 ug/mL, normalised to WT CD138; Range %WT Binding 2; Normalized 4320 vs. BB4 28.3. The method, then:
(§1) Serial dilutions of each MAb were tested for immunoreactivity against cells expressing target protein (WT) or vector alone. Validation of target expression and optimization of detection and binding of anti-CD138 antibodies both by flow cytometry was completed in replicate (N=4). The optimal screening concentration for each MAb was determined based on the raw signal values and signal-to-background calculations specifically optimized for each test article. Optimized parameters included the use of 10% goat serum as blocking reagent. Primary antibody staining was for 60 minutes at 25° C. Wash buffer include phosphate buffered saline (divalent metal ion free), pH 7.4. […] Secondary antibodies were diluted 1:400 and incubated for 30 minutes at 25° C.
(§2) Library screens of very-high-affinity mAbs can fail to yield critical residues for antibody binding due to deficiencies of such an assay to detect and differentiate critical vs. less critical binding based on affinity and quantification of cell binding. One common approach in the literature is the use of monovalent antibody derived fragments such as Fab usually weakens binding sufficiently to allow identification of critical residues for binding. […] Binding of each test Ab to each mutant clone in the alanine scanning library was determined, in duplicate, and likewise evaluated by flow cytometry.
On the technique in general: In flow cytometry, cells or beads pass a laser one at a time.

Another experiment deals with T2, R155A (Homo sapiens, UniProt P18827).
T2 construct: clone of the alanine scanning library on HEK-293T cells; m17 with one substitution; also called CD138 R155A
T2 sequence (CD138 (SDC1), full length, point mutant, looked up): T1 sequence (CD138 (SDC1), full length, point mutant, looked up) with A88V, R133A
In words: alanine scan: flow cytometry on HEK-293T cells expressing the mutant clone, 4320 Fab 0.50 ug/mL, normalised to WT CD138; Range %WT Binding 6; Normalized 4320 vs. BB4 39.8. The method, then: as §1, §2

In the next experiment the target is T3, R117A (Homo sapiens, UniProt P18827).
T3 construct: clone of the alanine scanning library on HEK-293T cells; m17 with one substitution; also called CD138 R117A
T3 sequence (CD138 (SDC1), full length, point mutant, looked up): T1 sequence (CD138 (SDC1), full length, point mutant, looked up) with A88V, R95A
Kind of experiment: alanine scan: flow cytometry on HEK-293T cells expressing the mutant clone, 4320 Fab 0.50 ug/mL, normalised to WT CD138; Range %WT Binding 13; Normalized 4320 vs. BB4 14.8. The method, then: as §1, §2

Another experiment deals with T4, L114A (Homo sapiens, UniProt P18827).
T4 construct: clone of the alanine scanning library on HEK-293T cells; m17 with one substitution; also called CD138 L114A
T4 sequence (CD138 (SDC1), full length, point mutant, looked up): T1 sequence (CD138 (SDC1), full length, point mutant, looked up) with A88V, L92A
Kind of experiment: alanine scan: flow cytometry on HEK-293T cells expressing the mutant clone, 4320 Fab 0.50 ug/mL, normalised to WT CD138; Range %WT Binding 15; Normalized 4320 vs. BB4 30.8. The method, then: as §1, §2

The target in the next experiment is T5, P167A (Homo sapiens, UniProt P18827).
T5 construct: clone of the alanine scanning library on HEK-293T cells; m17 with one substitution; also called CD138 P167A
T5 sequence (CD138 (SDC1), full length, point mutant, looked up): T1 sequence (CD138 (SDC1), full length, point mutant, looked up) with A88V, P145A
Kind of experiment: alanine scan: flow cytometry on HEK-293T cells expressing the mutant clone, 4320 Fab 0.50 ug/mL, normalised to WT CD138; Range %WT Binding 46; Normalized 4320 vs. BB4 50.9. The method, then:
as §1, §2

B1: Fab fragment of mAb 4320 (Fab, V domains shown)
VH: QVQLVQSGAEVKKPGASVKVSCKASGYSFSSYYMHWVRQAPGQGLEWMGTIHPSDSTTNYNQKFQGRVTMTVDTSTRTAYMELSSLRSEDTAVYYCANFVYWGQGTTVTVSS
VL: DIVMTQTPLSLSVTPGQPASISCKSSKSLLYKDGKTYLNWFLQKPGQSPQLLIYVVSTRASGVPDRFSGSGSGTDFTLKISRVEAEDVGVYYCQQLVEYPYTFGQGTKLEIKR
modifications: N-terminal Q1 observed as pyroglutamic acid (PCA) in the 138-2-5 complex
notes: In the crystal structures heavy chain residues 1-213 were traced; also called Fab4320
For B1, the “Mean %WT Binding” value in the experiment with V110A was found to be 21.9 %WT; with R155A, 12.3 %WT; in the experiment with R117A it was 14.4 %WT; with L114A it was 36.2 %WT; in the experiment with P167A it was 56.4 %WT.
